Measured values from the nanobody polyreactivity screen of Harvey et al. (2022).

Test: yeast display, Sf9 membrane polyspecificity reagent, FACS + sequencing; frameworks hold sequencing errors
Summary of the method: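 Using colony PCR, genes from sorted yeast display clones were amplified, then sequenced on MiSeq at 2 × 250 and filtered by CDR length. The clones had been stained with 10% biotinylated, detergent-solubilized Sf9 membrane reagent for 1 hour at 4 °C and sorted by FACS into low and high (top ~1%) gates on anti-HA and streptavidin fluorescence. Polyreactivity labels come from the gate of origin.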

Sequence | polyreactivity (PSR sort gate)
QVQLVESGGGLVQAGGSLRLSCAASGFTFVAYAMGWYRQAPGKERELVAAIRRTDTSTYYADSVKGRFTISRDNAKNTVYLQINSLKPEDTAVYYCAADYWRRTYLGFDYWGQGTQVTVSS | low polyreactivity
QVQLVESGGGLVQAGGSLRLSCAASGRIFYFYAMGLYTQAPGKERELVAVISYGGDRTSYADSVKGRFTISRDNAKNTVYLQMNSLKPEDSAVYYCAARPFYRGYYYWGQGTQVTVSS | high polyreactivity
QVQLVESGGGLVQAGGSLRLSCAASGRIFINNAMGWYRQAPGKERELVAAINTGGGTNYADSVKGRFTISRDNAKNTVYLEMNSLKPEDSAVYYCAARTYDFRARHKDGYWGQGTQVTVSS | high polyreactivity
QVQLVESGGGLVQAGGSLRLSCAASGTIFSDYAMGWYRQAPGKERELVATITSRGGSTHYADSVKGRFTISRDNAKNTVYLQMNSLKPEDTAVYYCIVRRLYVYTITSGDVDYDYWGQGTQVTVSS | low polyreactivity
QVQLVESGGGLVQAGGRLSLSCAASGSIFLYYAMGWYRQAPGKEREFVADISRSGGSTYYADSVKGRFTISRDNAKNTVYLQMNSLKPEDTAVYYCAASFYRYFVSLCYDYWGQGTQVSVSS | high polyreactivity
QVQLVESGGGLVQAGGSLRLSCAASGRTFNGYVMGWYRQAPGKEREFVAVINWSGGNTYYADSVKGRFTISRDNAKNTVNLQMNSLKPEDTAVYYCAARRVRSYAYDYWGQGTQVTVSS | high polyreactivity
QVQLVESGGGLVQAGGSLRLSCAASGIIFQRNDMGWYRQAPGKERELVANIRDGGITYADSVKGRFTISRDNAKNTVYLQMNSLKPEDTAVYYCARDDTSPGYGDQSFNAAYYYWGQGTQVTVSS | low polyreactivity
QVQLVESGGGLVQAGGSLRLSCAASGFIFDAYAMGWYRQAPGKERELVAGISIGGRTNYADSVKGRFTISRDNAKNTVYLQMNSLKPEDTAVYYCAARNYRYYYGSYYRGPITNYEYWGQGTQVTVSS | low polyreactivity
QVQLVESGGGLVQAGGSLRLSCAASGRTFPFYAMGWYRQAPGKEREFVASITRSGGSTNYADSVKGRFTISRDNAKNTVYLQMNSLKPEDTAVYYCNAGAVYWGYSRGWYERDYWGQGTQVTVSS | high polyreactivity
